Where “and” joins values, the source holds several entries; their conditions need not be identical. Equal entries are not always repeated. Where two headings read alike, the source gives them in different places.
Legend:
Staphylococcus aureus = assay: MIC by spot test; assay type: cell-based
E. coli O157:H7 904 = assay: SDS-PAGE gel overlaid with test strain; assay type: cell-based; settings: for Inhibiting Activity measured by SDS-PAGE: CAP, active band, E. coli O157:H7 904; for Inhibiting Activity SDS-PAGE: purified bacteriocin, E. coli O157:H7
Method: (§1) CAPs and bacteriocins were electrophoresed in about 15% […] gel weight, about 1% SDS (9×12 cm) in Tri-glycine buffer. After electrophoresis at about 100 mA for approximately 4 hours, gels were fixed with a solution containing approximately 15% ethanol and approximately 1% acetic acid. The gels were then washed with distilled water for approximately 4 hours. To determine molecular weights of protein fractions, the gel was stained with a solution containing approximately 0.21% Coomassi Blue G-250, about 40% ethanol, and about 7% acetic acid. Washed gels were tested against three target bacteria, C. jejuni NCTC 11168, E. coli 0157:H7 904, and S. enteritidis 204 by the method of Bhunia et al. (Journal of Industrial Microbiology, Volume 2, 319-322, 1987; herein incorporated by reference). The gels were placed in Petri dishes, covered with 5% blood-semi-solid Campylobacter agar (about 0.75%) or semi-solid MPA, and seeded with cells of the test strains. Plates containing C. jejuni were incubated at about 42° C. for approximately 48 hours under microaerobic conditions, E. coli 0157:H7 and S. enteriditidis at about 37° C. for approximately 24 hours. Assessment was based on visualization of zones of the inhibited growth of the test strains in the presence of bacteriocins.

S. enteritidis 204 = assay: SDS-PAGE gel overlaid with test strain; assay type: cell-based; settings: for Inhibiting Activity measured by SDS-PAGE: CAP, active band; for Inhibiting Activity SDS-PAGE: purified bacteriocin
Method: as §1

Citrobacter freundi = assay: MIC by spot test; assay type: cell-based
[1] = Isoelectric focusing (pI); assay type: physicochemical; settings: for pI of the band with antimicrobial activity: pure bacteriocin, gel overlaid with Campylobacter jejuni
Campylobacter spp. I/U-1 = assay: MIC by agar diffusion; assay type: cell-based; settings: Campylobacter spp. strain I/U-1
Method: (§2) The susceptibility of Campylobacter spp. to purified preparations of bacteriocins 760 and E50-52 was determined using strains isolated from broiler chicks as described above in Example 1. Antagonistic activity of the bacteriocins was assessed on the basis of minimum inhibitory concentrations (MICs) which were determined by agar diffusion. […] All the tested bacteriocins are highly antagonistic to the Campylobacter spp. strains.

Campylobacter spp. Cez-4 = assay: MIC by agar diffusion; assay type: cell-based; settings: Campylobacter spp. strain Cez-4
Method: as §2

Campylobacter spp. P-32 = assay: MIC by agar diffusion; assay type: cell-based; settings: Campylobacter spp. strain P-32
Method: as §2

Campylobacter spp. P-24 = assay: MIC by agar diffusion; assay type: cell-based; settings: Campylobacter spp. strain P-24
Method: as §2

Campylobacter spp. F-1 = assay: MIC by agar diffusion; assay type: cell-based; settings: Campylobacter spp. strain F-1
Method: as §2

[2] = test system: Campylobacter spp. Ind18/2; assay: MIC by agar diffusion; assay type: cell-based; settings: Campylobacter spp. strain Ind18/2
Method: as §2

Campylobacter spp. G-2 = assay: MIC by agar diffusion; assay type: cell-based; settings: Campylobacter spp. strain G-2
Method: as §2

Campylobacter spp. G-1 = assay: MIC by agar diffusion; assay type: cell-based; settings: Campylobacter spp. strain G-1
Method: as §2

Campylobacter spp. P-27 = assay: MIC by agar diffusion; assay type: cell-based; settings: Campylobacter spp. strain P-27
Method: as §2

Campylobacter spp. P-21 = assay: MIC by agar diffusion; assay type: cell-based; settings: Campylobacter spp. strain P-21
Method: as §2

Campylobacter spp. P-2 = assay: MIC by agar diffusion; assay type: cell-based; settings: Campylobacter spp. strain P-2
Method: as §2

Campylobacter spp. P-28 = assay: MIC by agar diffusion; assay type: cell-based; settings: Campylobacter spp. strain P-28
Method: as §2

Campylobacter spp. K-10 = assay: MIC by agar diffusion; assay type: cell-based; settings: Campylobacter spp. strain K-10
Method: as §2

Campylobacter spp. P-31 = assay: MIC by agar diffusion; assay type: cell-based; settings: Campylobacter spp. strain P-31
Method: as §2

Campylobacter spp. B-3 = assay: MIC by agar diffusion; assay type: cell-based; settings: Campylobacter spp. strain B-3
Method: as §2

C. jejuni = assay: Activity of bacteriocin preparations from culture with and without inducer strain (arbitrary units); assay type: cell-based, Campylobacter jejuni
S. typhimurium 320 = assay: MIC by spot test; assay type: cell-based
Y. enterolitica 09 = assay: MIC by spot test; assay type: cell-based, Y. enterocolitica
E. coli O157:H7 lab. 39 = assay: MIC by spot test; assay type: cell-based
S. enteritidis 237 = assay: MIC by spot test; assay type: cell-based
E. coli O157:H7 G-3 = assay: MIC by spot test; assay type: cell-based
Y. enterocolitica 03 = assay: MIC by spot test; assay type: cell-based
Proteus mirabilis = assay: MIC by spot test; assay type: cell-based
C. jejuni NCTC 11168 [3] = assay: Thermostability and effect of pH on bacteriocin activity (spot test); assay type: physicochemical, Campylobacter jejuni; settings: for Antimicrobial activity after treatment: heating to about 90° C.
C. jejuni NCTC 11168 [4] = assay: SDS-PAGE gel overlaid with test strain; assay type: cell-based, Campylobacter jejuni; settings: for Inhibiting Activity measured by SDS-PAGE: CAP, active band, C. jejuni NCTC 11168; for Inhibiting Activity SDS-PAGE: purified bacteriocin, C. jejuni
Method: as §1

Campylobacter jejuni = assay: Antagonistic activity of products purified by Methods A and B; assay type: cell-based; design: Specific Activity UE/ml: unit not given here
[5] = cultivation with inducer strain
[6] = cultivation without inducer strain

Bacteriocin 50-52: bacteriocin produced by Enterococcus durans/faecium/hirae NRRL B-30746 (strain 50-52); amino acid sequence SEQ ID NO 1 (TTKNYGNGVCNSVNWCQCGNVWASCNLATGCAAWLCKLA; listed as Enterococcus faecium)
MICs (Staphylococcus aureus): 0.4 µg/mL
Inhibiting Activity measured by SDS-PAGE (E. coli O157:H7 904): M.W. 3.9 kDa
Inhibiting Activity SDS-PAGE (E. coli O157:H7 904): +Band 1
Inhibiting Activity measured by SDS-PAGE (S. enteritidis 204): M.W. 3.9 kDa
Inhibiting Activity SDS-PAGE (S. enteritidis 204): +Band 1
MICs (Citrobacter freundi): 0.1 µg/mL
IEF (pI) [1, 5]: 8.4
IEF (pI) [1, 6]: 8.4
IEF (pI) ([1]; isolated by Method A): 8.4
IEF (pI) ([1]; isolated by Method B): 8.4
pI of the band with antimicrobial activity [1]: about 8.4
MICs (Campylobacter spp. I/U-1): 0.05 µg/mL
MICs (Campylobacter spp. Cez-4): 0.1 µg/mL
MICs (Campylobacter spp. P-32): 0.1 µg/mL
MICs (Campylobacter spp. P-24): 0.05 µg/mL
MICs (Campylobacter spp. F-1): 0.1 µg/mL
MICs [2]: 0.05 µg/mL
MICs (Campylobacter spp. G-2): 0.1 µg/mL
MICs (Campylobacter spp. G-1): 0.05 µg/mL
MICs (Campylobacter spp. P-27): 0.1 µg/mL
MICs (Campylobacter spp. P-21): 0.05 µg/mL
MICs (Campylobacter spp. P-2): 0.05 µg/mL
MICs (Campylobacter spp. P-28): 0.1 µg/mL
MICs (Campylobacter spp. K-10): 0.05 µg/mL
MICs (Campylobacter spp. P-31): 0.1 µg/mL
MICs (Campylobacter spp. B-3): 0.05 µg/mL
Activity AU/ml (C. jejuni; [5]): 12,800 AU/ml
Specific Activity AU/mg (C. jejuni; [5]): 320,000 AU/mg
Activity AU/ml (C. jejuni; [6]): 3,200 AU/ml
Specific Activity AU/mg (C. jejuni; [6]): 213,333 AU/mg
MICs (S. typhimurium 320): 0.1 µg/mL
MICs (Y. enterolitica 09): 0.4 µg/mL
MICs (E. coli O157:H7 lab. 39): 0.1 µg/mL
MICs (S. enteritidis 237): 0.1 µg/mL
MICs (E. coli O157:H7 G-3): 0.1 µg/mL
MICs (Y. enterocolitica 03; Y. enterolitica 03): 0.1 µg/mL
MICs (Proteus mirabilis): 1.6 µg/mL
Stability at different values of pH (C. jejuni NCTC 11168 [3]; about pH 10): became inactive
Antimicrobial activity after treatment (C. jejuni NCTC 11168 [3]): retained it
Stability at different values of pH (C. jejuni NCTC 11168 [3]; pH about 3.0 to about 9.0): stable
Inhibiting Activity measured by SDS-PAGE (C. jejuni NCTC 11168 [4]): M.W. 3.9 kDa
Inhibiting Activity SDS-PAGE (C. jejuni NCTC 11168 [4]): +Band 1
Activity UE/ml (Campylobacter jejuni; isolated by Method A): 6,400 UE/ml
Specific Activity UE/ml (Campylobacter jejuni; isolated by Method A): 85,333
Activity UE/ml (Campylobacter jejuni; isolated by Method B): 12,800 UE/ml
Specific Activity UE/ml (Campylobacter jejuni; isolated by Method B): 320,000

B1: Bacteriocin 760: bacteriocin produced by Enterococcus durans/faecium/hirae NRRL B-30745 (strain 760); amino acid sequence SEQ ID NO 2 (protein, listed as Streptococcus cricetus)
chain: NRWYCNSAAGGVGGAAVCGLAGYVGEAKENIAGEVRKGWGMAGGFTHNKACKSFPGSGWASG
MIC (Staphylococcus aureus): 1600 µg/mL
Inhibiting Activity measured by SDS-PAGE (E. coli O157:H7 904): M.W. 5.5 kDa
Inhibiting Activity SDS-PAGE (E. coli O157:H7 904): +Band 1
Inhibiting Activity measured by SDS-PAGE (S. enteritidis 204): M.W. 5.5 kDa
Inhibiting Activity SDS-PAGE (S. enteritidis 204): +Band 1
MIC (Citrobacter freundi): 1600 µg/mL
IEF (pI) [1]: 9.5
IEF (pI) ([1]; isolated by Method A): 9.5
IEF (pI) ([1]; isolated by Method B): 9.5
pI of the band with antimicrobial activity [1]: about 9.5
MICs (Campylobacter spp. I/U-1): 0.05 µg/mL
MICs (Campylobacter spp. Cez-4): 0.1 µg/mL
MICs (Campylobacter spp. P-32): 0.05 µg/mL
MICs (Campylobacter spp. P-24): 0.05 µg/mL
MICs (Campylobacter spp. F-1): 0.05 µg/mL
MICs [2]: 0.05 µg/mL
MICs (Campylobacter spp. G-2): 0.05 µg/mL
MICs (Campylobacter spp. G-1): 0.05 µg/mL
MICs (Campylobacter spp. P-27): 0.05 µg/mL
MICs (Campylobacter spp. P-21): 0.1 µg/mL
MICs (Campylobacter spp. P-2): 0.05 µg/mL
MICs (Campylobacter spp. P-28): 0.05 µg/mL
MICs (Campylobacter spp. K-10): 0.05 µg/mL
MICs (Campylobacter spp. P-31): 0.05 µg/mL
MICs (Campylobacter spp. B-3): 0.05 µg/mL
Specific Activity AU/mg (C. jejuni): 160,000 AU/mg and 284,444 AU/mg
MIC (S. typhimurium 320): 200 µg/mL
MIC (Y. enterolitica 09): 100 µg/mL
MIC (E. coli O157:H7 lab. 39): 1600 µg/mL
MIC (S. enteritidis 237): 200 µg/mL
MIC (E. coli O157:H7 G-3): 1600 µg/mL
MIC (Y. enterocolitica 03; Y. enterocolitica 03): 100 µg/mL
MIC (Proteus mirabilis): 3200 µg/mL
Stability at different values of pH (C. jejuni NCTC 11168 [3]; about pH 10): became inactive
Antimicrobial activity after treatment (C. jejuni NCTC 11168 [3]): retained it
Stability at different values of pH (C. jejuni NCTC 11168 [3]; pH about 3.0 to about 9.0): stable
Inhibiting Activity measured by SDS-PAGE (C. jejuni NCTC 11168 [4]): M.W. 5.5 kDa
Inhibiting Activity SDS-PAGE (C. jejuni NCTC 11168 [4]): +Band 1
Activity UE/ml (Campylobacter jejuni; isolated by Method A): 12,800 UE/ml
Specific Activity UE/ml (Campylobacter jejuni; isolated by Method A): 71,111
Activity UE/ml (Campylobacter jejuni; isolated by Method B): 51,200 UE/ml
Specific Activity UE/ml (Campylobacter jejuni; isolated by Method B): 284,444

Source: US7988958B2, “Enterococcus and Streptococcus strains and bacteriocins” (The United States of America as represented by the …, priority 2005, dated 2011)
